Here are results for 39 molecules from US20240018502A1.

First the molecules themselves.
B1: MTSP-1 protease domain I41D/F97T/F99L/C122S/G151N/Q192T (enzyme)
chain: VVGGTDADEGEWPWQVSLHALGQGHDCGASLISPNWLVSAAHCYIDDRGFRYSDPTQWTAFLGLHDQSQRSAPGVQERRLKRIISHPFFNDTTLDYDIALLELEKPAEYSSMVRPISLPDASHVFPAGKAIWVTGWGHTQYGGTNALILQKGEIRVINQTTCENLLPQQITPRMMCVGFLSGGVDSCTGDSGGPLSSVEADGRIFQAGVVSWGDGCAQRNKPGVYTRLPLFRDWIKENTGV
B2: MTSP-1 protease domain I41S/F99M/C122S/G151N/Q175G/Q192R (enzyme)
chain: B1 chain with D26S, T92F, L94M, Q169G, T188R
B3: MTSP-1 protease domain I41S/F99L/C122S/G151H/Q175L/Q192V (enzyme)
chain: B1 chain with D26S, T92F, N145H, Q169L, T188V
B4: MTSP-1 protease domain I41E/F99L/C122S/G151N/Q192V (enzyme)
chain: B1 chain with D26E, T92F, T188V
B5: MTSP-1 protease domain I41D/F99L/C122S/Q192T (enzyme)
chain: B1 chain with T92F, N145G
B6: MTSP-1 I41E/F99L/C122S/G151N/Q192T (enzyme)
chain: B1 chain with D26E, T92F
B7: MTSP-1 protease domain Q38K/I41D/Y60gG/F99L/C122S/G151N (enzyme)
chain: B1 chain with Q23K, Y52G, T92F, T188Q
B8: MTSP-1 protease domain Q38H/I41S/Y60gW/C122S/G151H/Q192A (enzyme)
chain: B1 chain with Q23H, D26S, Y52W, T92F, L94F, N145H, T188A
B9: MTSP-1 protease domain I41E/F99L/C122S/G151N/Q175G/Q192T (enzyme)
chain: B1 chain with D26E, T92F, Q169G
B10: MTSP-1 I41D/Y59F/C122S/G151N/Q192T (enzyme)
chain: B1 chain with Y44F, T92F, L94F
B11: MTSP-1 protease domain Q38K/I41G/Y60gW/F99L/C122S/G151N/Q192A (enzyme)
chain: B1 chain with Q23K, D26G, Y52W, T92F, T188A
B12: MTSP-1 protease domain I41E/F99L/C122S/G151N/Q175L/Q192A (enzyme)
chain: B1 chain with D26E, T92F, Q169L, T188A
B13: MTSP-1 protease domain I41S/F99M/C122S/G151N/Q175L/Q192G (enzyme)
chain: B1 chain with D26S, T92F, L94M, Q169L, T188G
B14: MTSP-1 protease domain Q38R/I41R/Y60gF/F99L/C122S/G151N/Q192G (enzyme)
chain: B1 chain with Q23R, D26R, Y52F, T92F, T188G
B15: MTSP-1 protease domain I41S/C122S/G151N/Q175R/Q192R (enzyme)
chain: B1 chain with D26S, T92F, L94F, Q169R, T188R
B16: MTSP-1 protease domain I41S/C122S/G151N/Q175D/Q192R (enzyme)
chain: B1 chain with D26S, T92F, L94F, Q169D, T188R
B17: MTSP-1 protease domain I41D/F99L/C122S/G151N/Q192T (enzyme)
chain: B1 chain with T92F
B18: MTSP-1 protease domain I41S/F99L/C122S/G151N/Q175P/Q192V (enzyme)
chain: B1 chain with D26S, T92F, Q169P, T188V
B19: MTSP-1 protease domain I41S/F99M/C122S/G151N/Q175P/Q192S (enzyme)
chain: B1 chain with D26S, T92F, L94M, Q169P, T188S
B20: MTSP-1 protease domain Q38S/I41S/Y60gW/F99L/C122S/G151D/Q192T (enzyme)
chain: B1 chain with Q23S, D26S, Y52W, T92F, N145D
B21: MTSP-1 protease domain Q38K/I41G/Y60gG/F99L/C122S/G151N/Q192H (enzyme)
chain: B1 chain with Q23K, D26G, Y52G, T92F, T188H
B22: MTSP-1 protease domain Q38K/I41R/Y60gG/F99L/C122S/G151N/Q192G (enzyme)
chain: B1 chain with Q23K, D26R, Y52G, T92F, T188G
B23: MTSP-1 protease domain F99L/C122S/G151N/Q192T (enzyme)
chain: B1 chain with D26I, T92F
B24: MTSP-1 protease domain I41D/F99L/C122S/Q175S/Q192T (enzyme)
chain: B1 chain with T92F, N145G, Q169S
B25: MTSP-1 I41D/Y59F/D96E/F99L/C122S/G151N/Q192T (enzyme)
chain: B1 chain with Y44F, D91E, T92F
B26: MTSP-1 protease domain I41G/F99L/C122S/G151N/Q192A (enzyme)
chain: B1 chain with D26G, T92F, T188A
B27: MTSP-1 protease domain Q38R/I41G/Y60gG/F99M/C122S/G151N/Q192R (enzyme)
chain: B1 chain with Q23R, D26G, Y52G, T92F, L94M, T188R
B28: MTSP-1 protease domain I41G/F99L/C122S/G151N/Q175R/Q192A (enzyme)
chain: B1 chain with D26G, T92F, Q169R, T188A
B29: MTSP-1 protease domain I41S/F99M/C122S/G151N/Q175E/Q192R (enzyme)
chain: B1 chain with D26S, T92F, L94M, Q169E, T188R
B30: MTSP-1 protease domain Q38L/I41R/Y60gF/F99L/C122S/G151N/Q192A (enzyme)
chain: B1 chain with Q23L, D26R, Y52F, T92F, T188A
B31: MTSP-1 protease domain I41E/F99L/C122S/G151N/Q175R/Q192H (enzyme)
chain: B1 chain with D26E, T92F, Q169R, T188H
B32: MTSP-1 protease domain I41E/C122S/G151N/Q175L/Q192A (enzyme)
chain: B1 chain with D26E, T92F, L94F, Q169L, T188A
B33: MTSP-1 protease domain I41E/F99L/C122S/G151N/Q192S (enzyme)
chain: B1 chain with D26E, T92F, T188S
B34: MTSP-1 protease domain Q38R/I41S/Y60gW/F99L/C122S/G151N/Q192E (enzyme)
chain: B1 chain with Q23R, D26S, Y52W, T92F, T188E
B35: MTSP-1 protease domain Q38R/I41R/Y60gL/F99L/C122S/G151N/Q192G (enzyme)
chain: B1 chain with Q23R, D26R, Y52L, T92F, T188G
B36: MTSP-1 protease domain Q38F/I41S/Y60gA/C122S/G151N/Q192R (enzyme)
chain: B1 chain with Q23F, D26S, Y52A, T92F, L94F, T188R
B37: MTSP-1 protease domain I41E/F99L/C122S/G151N/Q175R/Q192T (enzyme)
chain: B1 chain with D26E, T92F, Q169R
B38: MTSP-1 protease domain Q38R/I41R/F99L/C122S/G151N/Q192G (enzyme)
chain: B1 chain with Q23R, D26R, T92F, T188G
B39: MTSP-1 protease domain Q38K/I41S/Y60gW/F99L/C122S/G151N/Q192G (enzyme)
chain: B1 chain with Q23K, D26S, Y52W, T92F, T188G

Positions count from the first letter of the chain named. Names may count otherwise.

For this assay, the target named is plasma purified human complement protein C3 (human) (UniProt P01024). Put plainly: cell-based or functional assay.
Sequence of plasma purified human complement protein C3 (human) (P01024 23-667, chain 1 of 2): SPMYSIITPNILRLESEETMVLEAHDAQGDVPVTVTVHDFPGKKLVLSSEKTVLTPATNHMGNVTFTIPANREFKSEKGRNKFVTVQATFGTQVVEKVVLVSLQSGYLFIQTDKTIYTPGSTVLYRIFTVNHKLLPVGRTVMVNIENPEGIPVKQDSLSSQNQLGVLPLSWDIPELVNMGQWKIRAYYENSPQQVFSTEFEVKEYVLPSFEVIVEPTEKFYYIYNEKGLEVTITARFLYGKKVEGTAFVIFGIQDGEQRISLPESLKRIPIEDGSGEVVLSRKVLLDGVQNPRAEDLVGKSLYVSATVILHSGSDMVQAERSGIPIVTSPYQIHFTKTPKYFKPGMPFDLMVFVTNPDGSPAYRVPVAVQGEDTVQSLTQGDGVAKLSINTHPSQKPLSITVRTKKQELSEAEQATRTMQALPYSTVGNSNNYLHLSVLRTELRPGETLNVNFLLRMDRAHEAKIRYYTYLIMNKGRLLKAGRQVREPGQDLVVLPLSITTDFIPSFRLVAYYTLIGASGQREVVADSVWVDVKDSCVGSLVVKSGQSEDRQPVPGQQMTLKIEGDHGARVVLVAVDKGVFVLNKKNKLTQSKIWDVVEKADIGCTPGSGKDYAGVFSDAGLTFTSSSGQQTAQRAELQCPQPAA
Sequence of plasma purified human complement protein C3 (human) (P01024 672-1663, chain 2 of 2): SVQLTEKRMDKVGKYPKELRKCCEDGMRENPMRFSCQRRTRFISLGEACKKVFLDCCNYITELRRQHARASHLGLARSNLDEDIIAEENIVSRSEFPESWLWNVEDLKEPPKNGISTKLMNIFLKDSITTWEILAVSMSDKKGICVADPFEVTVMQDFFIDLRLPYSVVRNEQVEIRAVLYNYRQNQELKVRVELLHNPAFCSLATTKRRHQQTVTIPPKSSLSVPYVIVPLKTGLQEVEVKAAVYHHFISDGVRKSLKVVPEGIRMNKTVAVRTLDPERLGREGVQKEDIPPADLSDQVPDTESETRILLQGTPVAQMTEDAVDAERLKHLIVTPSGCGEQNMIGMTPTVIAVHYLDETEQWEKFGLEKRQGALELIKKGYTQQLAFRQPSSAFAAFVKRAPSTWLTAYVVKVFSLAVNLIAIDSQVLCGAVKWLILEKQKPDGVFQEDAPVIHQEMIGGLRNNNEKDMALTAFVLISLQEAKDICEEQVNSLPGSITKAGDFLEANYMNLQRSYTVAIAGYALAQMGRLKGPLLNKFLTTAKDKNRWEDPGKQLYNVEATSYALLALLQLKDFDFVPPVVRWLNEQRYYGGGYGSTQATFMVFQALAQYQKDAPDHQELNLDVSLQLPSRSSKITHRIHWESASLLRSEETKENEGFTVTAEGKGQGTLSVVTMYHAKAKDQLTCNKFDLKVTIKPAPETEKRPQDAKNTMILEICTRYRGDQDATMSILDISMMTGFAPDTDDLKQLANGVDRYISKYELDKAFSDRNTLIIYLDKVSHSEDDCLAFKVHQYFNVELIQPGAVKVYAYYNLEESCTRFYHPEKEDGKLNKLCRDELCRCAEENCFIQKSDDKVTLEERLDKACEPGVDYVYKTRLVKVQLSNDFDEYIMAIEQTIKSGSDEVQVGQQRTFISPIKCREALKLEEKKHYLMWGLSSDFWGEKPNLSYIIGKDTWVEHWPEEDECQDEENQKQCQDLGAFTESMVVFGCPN
B1 came in with an EC50 hC3 cleavage of 84.3 nM. B2 displayed an EC50 hC3 cleavage of 95.3 nM. Same read-out and setting: the same measure for B3: 20.9 nM; for B4: 156 nM. Consider B5, for which the EC50 hC3 cleavage is 59.4 nM. Regarding B6, the EC50 of hC3 cleavage was 124 nM. The molecule B7 had an EC50 hC3 cleavage of 52.7 nM. The molecule B8 displayed an EC50 hC3 cleavage of 8.96 nM. In the case of B9, the EC50 hC3 cleavage amounted to 30.2 nM. As to B10, the EC50 of hC3 cleavage is 56.7 nM.

In the case of B11, the EC50 hC3 cleavage came out at 9.96 nM. In the case of B12, the EC50 hC3 cleavage was determined as 28.5 nM. In the case of B13, the EC50 hC3 cleavage was 62 nM. Molecule B14 returned an EC50 hC3 cleavage of 197 nM. Consider B15, for which the EC50 hC3 cleavage is 134 nM. On the same count and under the same terms, the same measure for B16: 96.8 nM; for B17: 47 nM.

As for B18, the EC50 hC3 cleavage is 35.8 nM. As to B19, the EC50 hC3 cleavage was found to be 139 nM.

The molecule B20 came in with an EC50 hC3 cleavage of 15 nM. In the case of B21, the EC50 hC3 cleavage was 17.9 nM.

In turn, B22 registered an EC50 hC3 cleavage of 335 nM. Same read-out and setting: the same measure for B23: 225 nM; for B24: 27.4 nM. Molecule B25 registered an EC50 of hC3 cleavage of 54.9 nM. For the molecule B26, the EC50 hC3 cleavage came to 61 nM. B27: the EC50 hC3 cleavage was 147 nM. B28 returned an EC50 hC3 cleavage of 74.5 nM. B29 gave an EC50 hC3 cleavage of 297 nM.

Regarding B30, the EC50 hC3 cleavage is 151 nM. For the molecule B31, the EC50 hC3 cleavage worked out at 102 nM. B32 came in with an EC50 hC3 cleavage of 45 nM. Take B33: the EC50 hC3 cleavage came out at 112 nM.

Molecule B34 had an EC50 hC3 cleavage of 116 nM. Take B35: the EC50 hC3 cleavage was determined as 388 nM.

Consider B36, for which the EC50 hC3 cleavage turned out to be 33.1 nM.

Consider B37, for which the EC50 hC3 cleavage was found to be 155 nM. In the case of B38, the EC50 hC3 cleavage was 248 nM. On to B39, for which the EC50 hC3 cleavage is 35.1 nM.
